Source: patent US11390653B2, “Amino acid-specific binder and selectively identifying an amino acid” (priority 2018, dated 2022)

Columns and labels:
Assay type in all cases: binding
F1G2 peptide [1] = test: yeast/peptide colorimetric pull-down assay; conditions: yeast-displayed protein
Procedure: (§1) Incubation and wash steps were repeated.

W1G2 peptide = conditions: for KOFF Trp: from SPR dissociation curves; for Selectivity for Trp, Trp/Phe / Selectivity for Trp, Trp/Trp / Selectivity for Trp, Trp/Tyr: relative specificity factor, ratio of binding affinities; for Kd: steady state, peptide on surface, 0 to 50 μM protein, read-out: KD Trp
Procedure: (§2) With regard to surface plasmon resonance (SPR), SPR data was collected by loading a streptavidin chip with the target biotinylated peptides in each of the four channels, and then flowing the protein over the chip at each concentration for 180 seconds before washing with 50 mM Tris-HCl, pH 8.0, 300 mM NaCl, 1 mM DTT, 5% glycerol buffer for 180 seconds. […] The four channels were used such that the negative control peptide (A1G2) was in channel 1, F1G2 in channel 2, W1G2 in channel 3, and Y1G2 in channel 4. The negative control peptide channel was used as a baseline for subtraction, which accommodates both any non-specific binding and refractive index change. A steady state response at each concentration was plotted and fit to calculate the KD, while the resonance units vs. time was used to calculate a koff for each mutant protein with each peptide.
(§3) Regarding characterization of the ClpS mutant protein binding kinetics, for peptide sequencing via some recently proposed methods reagents can bind peptides affixed to a surface. Two A. tumefaciens ClpS2 protein variants (V2, described above, and V1) were expressed and purified from E. coli. […] The binding properties of each variant were analyzed using surface plasmon resonance (SPR).

Y1G2 peptide = test: SPR, peptide on streptavidin chip, ClpS2 variant protein in solution; conditions: for KOFF Tyr: from SPR dissociation curves; for Selectivity for Tyr, Tyr/Phe / Selectivity for Tyr, Tyr/Trp / Selectivity for Tyr, Tyr/Tyr: relative specificity factor, ratio of binding affinities; for Kd: steady state, peptide on surface, 0 to 50 μM protein, read-out: KD Tyr
Procedure: as §2, §3

F1G2 peptide [2] = test: as above; conditions: for specificity between N-terminal Phe and Trp, in words: from SPR binding data; for KOFF Phe: from SPR dissociation curves; for Selectivity for Phe, Phe/Phe / Selectivity for Phe, Phe/Trp / Selectivity for Phe, Phe/Tyr: relative specificity factor, ratio of binding affinities; for Kd: steady state, peptide on surface, 0 to 50 μM protein, read-out: KD Phe
Procedure: as §2, §3

Ile NAA peptide = target: T1, Ile NAA peptide (Agrobacterium fabrum, UniProt Q8UD95); test: yeast/peptide colorimetric pull-down assay
T1 construct: factor Xa cleavage site (N); expressed in transfected cells; host or cells: Saccharomyces cerevisiae EBY100, pCTCON2
Procedure: as §1

Met NAA peptide = target: T2, Met NAA peptide (Agrobacterium fabrum, UniProt Q8UD95); test: yeast/peptide colorimetric pull-down assay; conditions: high concentrations used in the assay
T2 construct: factor Xa cleavage site (N); expressed in transfected cells; host or cells: Saccharomyces cerevisiae EBY100, pCTCON2
Procedure: as §1

Leu NAA peptide = test: yeast/peptide colorimetric pull-down assay; conditions: yeast-displayed protein
Procedure: as §1

Lys NAA peptide = target: T3, Lys NAA peptide (Agrobacterium fabrum, UniProt Q8UD95); test: yeast/peptide colorimetric pull-down assay; conditions: high concentrations used in the assay
T3 construct: factor Xa cleavage site (N); expressed in transfected cells; host or cells: Saccharomyces cerevisiae EBY100, pCTCON2
Procedure: as §1

Val NAA peptide = target: T4, Val NAA peptide (Agrobacterium fabrum, UniProt Q8UD95); test: yeast/peptide colorimetric pull-down assay
T4 construct: factor Xa cleavage site (N); expressed in transfected cells; host or cells: Saccharomyces cerevisiae EBY100, pCTCON2
Procedure: as §1

Ala NAA peptide = target: T5, Ala NAA peptide (Agrobacterium fabrum, UniProt Q8UD95); test: yeast/peptide colorimetric pull-down assay
T5 construct: factor Xa cleavage site (N); expressed in transfected cells; host or cells: Saccharomyces cerevisiae EBY100, pCTCON2
Procedure: as §1

His NAA peptide [3] = target: T6, His NAA peptide (Agrobacterium fabrum, UniProt Q8UD95); test: yeast/peptide colorimetric pull-down assay; design: factor Xa cleavage site (N); expressed in transfected cells; host or cells: Saccharomyces cerevisiae EBY100, pCTCON2; conditions: high concentrations used in the assay
Procedure: as §1

Arg NAA peptide [4] = target: T7, Arg NAA peptide (Agrobacterium fabrum, UniProt Q8UD95); test: yeast/peptide colorimetric pull-down assay; design: factor Xa cleavage site (N); expressed in transfected cells; host or cells: Saccharomyces cerevisiae EBY100, pCTCON2; conditions: high concentrations used in the assay
Procedure: as §1

His NAA peptide [5] = target: T6, His NAA peptide; test: flow cytometry of yeast displaying ClpS proteins; design: factor Xa cleavage site (N); expressed in transfected cells
Procedure: (§4) After two rounds of MACs selection, the library was sorted by flow cytometry. […] A typical reaction contained 100 μL of cells (containing approximately 10^6 cells), 10 μL of peptide at a concentration between 10 nM to 10 μM, and 25 μL of a master mix containing 2 μL of an anti-myc antibody, 4 μL of the SAPE (streptavidin, R-phycoerythrin conjugate—1 mg/mL) and 19 μL of PBS/BSA for each sample.
(§5) Cells were washed with PBS/BSA and sorted using a FACS Aria cytometer and collected in 1 mL of SD-CAA media. The number of cells that bound the peptide improved with each round and were sorted with sequentially lower concentrations of peptide to increase the stringency of the selection. […]
(§6) With regard to directed evolution of ClpS, random mutagenesis and screening was used to select proteins with higher affinity binding to the target NAA. In subsequent steps, specific residues were determined from initial screens with a targeted mutagenesis step. […] Using FACS, we assessed the affinity of each mutant for the N-terminal amino acid on the target peptide based on which quadrant the fluorescent signal fell into as shown in FIG. 15. […] If there is also a high fluorescence signal along the x-axis (streptavidin-PE) then the peptide is presumably bound to the protein variant, and the signal will appear in Q2. […]

Arg NAA peptide [6] = target: T7, Arg NAA peptide; test: flow cytometry of yeast displaying ClpS proteins; design: factor Xa cleavage site (N); expressed in transfected cells
Procedure: as §4, §5, §6

[7] = target: T8, full panel of 20 peptides containing different NAAs (Agrobacterium fabrum, UniProt Q8UD95); test: yeast/peptide colorimetric pull-down assay, full panel
T8 construct: factor Xa cleavage site (N); expressed in transfected cells; host or cells: Saccharomyces cerevisiae EBY100, pCTCON2
Procedure: as §1

Molecule | KOFF Trp (W1G2 peptide) | Selectivity for Trp, Trp/Phe (W1G2 peptide) | Selectivity for Trp, Trp/Trp (W1G2 peptide) | Selectivity for Trp, Trp/Tyr (W1G2 peptide) | Kd (W1G2 peptide) | KOFF Tyr (Y1G2 peptide) | Selectivity for Tyr, Tyr/Phe (Y1G2 peptide) | Selectivity for Tyr, Tyr/Trp (Y1G2 peptide) | Selectivity for Tyr, Tyr/Tyr (Y1G2 peptide) | Kd (Y1G2 peptide) | specificity between N-terminal Phe and Trp, in words (F1G2 peptide [2]) | KOFF Phe (F1G2 peptide [2]) | Selectivity for Phe, Phe/Phe (F1G2 peptide [2]) | Selectivity for Phe, Phe/Trp (F1G2 peptide [2]) | Selectivity for Phe, Phe/Tyr (F1G2 peptide [2]) | Kd (F1G2 peptide [2]) | other results
A. tumefaciens ClpS2 [Variant V3, A. tumefaciens ClpS2 [Cys34 Ser35 Trp36]] | – | – | – | – | – | – | – | – | – | – | – | – | – | – | – | – | affinity for F1G2 peptide compared to wild-type (F1G2 peptide [1]): increased affinity; selectivity towards F1G2 peptide compared to other NAAs (F1G2 peptide [1]): higher selectivity
A. tumefaciens ClpS2 [Pro34 Met35 Ser36] (protein, listed as Escherichia coli, ClpS2 variant, native residues 34-36 ProArgGlu mutated to ProMetSer) SDSPVDLKPKPKVKPKLERPKLYKVMLLNDDYTPMSFVTVVLKAVFRMSEDTGRRVMMTAHRFGSAVVVVCERDIAETKAKEATDLGKEAGFPLMFTTEPEE | 0.76 s⁻¹ | 7.28 | 1.0 | 1.13 | 13.1 ± 1.3 µM | 0.5 s⁻¹ | 6.43 | 0.88 | 1.0 | 11.6 ± 1.2 µM | more specific for N-terminal Trp than for Phe | 0.1 s⁻¹ | 1.0 | 0.14 | 0.16 | 1.8 ± 0.4 µM | affinity for N-terminal Trp relative to wild-type, in words (W1G2 peptide; in vitro surface binding assays / SPR): little change; improvement in affinity for Y1G2 compared to wild-type (Y1G2 peptide; SPR): 5.5 fold; dissociation rate slowed over wild-type, Phe (F1G2 peptide [2]; SPR): 9.4 fold; improvement in KD/affinity for Phe peptide compared to wild-type (F1G2 peptide [2]; SPR): 7.2 fold; improvement in KD/affinity for Phe peptide compared to wild-type (F1G2 peptide [2]; SPR, listed as ProMetSer variant): 7 fold
A. tumefaciens ClpS2 [Pro34 Arg35 Glu36] (protein, wild-type Agrobacterium tumefaciens ClpS2, N-End Rule Pathway adaptor protein) MGHHHHHHENLYFQGSDSPVDLKPKPKVKPKLERPKLYKVMLLNDDYTPREFVTVVLKAVFRMSEDTGRRVMMTAHRFGSAVVVVCERDIAETKAKEATDLGKEAGFPLMFTTEPEE | 1.32 s⁻¹ | 1.42 | 1.0 | 0.29 | 18.4 ± 0.4 µM | 1.16 s⁻¹ | 4.86 | 3.43 | 1.0 | 63 ± 4 µM | modest specificity for N-terminal Phe | 0.93 s⁻¹ | 1.0 | 0.71 | 0.21 | 13 ± 0.6 µM | binding to Ile (Ile NAA peptide): does bind; binding to Met (Met NAA peptide): some binding activity; binding to Leu (Leu NAA peptide): does not bind; binding to Lys (Lys NAA peptide): some binding activity; binding to Val (Val NAA peptide): lack of binding; binding to Ala (Ala NAA peptide): lack of binding; binding to His (His NAA peptide [3]): some binding activity; binding to Arg (Arg NAA peptide [4]): some binding activity; binding to His (His NAA peptide [5]): confirmed; binding to Arg (Arg NAA peptide [6]): confirmed; binding to the remaining amino acids [7]: non-binding
